Experimental data: patent US20090214524A1

Biological target: Bub3 (UniProt O43684)
Experiment: cell-based or functional assay

UniProt O43684, sequence (O43684 whole entry): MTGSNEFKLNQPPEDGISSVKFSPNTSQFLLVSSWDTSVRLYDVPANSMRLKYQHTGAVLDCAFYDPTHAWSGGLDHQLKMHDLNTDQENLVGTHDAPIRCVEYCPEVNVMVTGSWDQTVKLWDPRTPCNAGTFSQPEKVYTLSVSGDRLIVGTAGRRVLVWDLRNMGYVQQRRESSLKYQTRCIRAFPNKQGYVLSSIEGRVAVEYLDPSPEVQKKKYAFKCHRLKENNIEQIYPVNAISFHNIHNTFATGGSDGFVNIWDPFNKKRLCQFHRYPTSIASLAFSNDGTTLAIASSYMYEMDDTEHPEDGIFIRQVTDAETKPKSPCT

Which restoration of colcemid-mediated mitotic checkpoint arrest (BrdU incorporation) in T98G cells depleted of endogenous BubR1 does the source give for “myc-tagged siRNA-resistant wild type BubR1 (pcDNA3-myc-BubR1^ΔsiRNA) (from UniProt O60566 1-1050)” here?
Its restoration of colcemid-mediated mitotic checkpoint arrest (BrdU incorporation) in T98G cells depleted of endogenous BubR1 is 50%.
